Reference: patent US5503978, “Method for identification of high affinity DNA ligands of HIV-1 reverse transcriptase” (University Research Corporation)

Experiments:
[1] = biological target: T1, HIV-1 reverse transcriptase (HIV-1, UniProt P04585;P04585 P04585:588-1147,P04585:588-1027); assay: inhibition; Ki' for RNA-dependent DNA polymerase activity; details: tags: overexpressed in E. coli, purified per Davies et al. 1991
Description: (§1) A substrate for the RNA-dependent DNA polymerase activity of HIV-1 RT was assembled by annealing an 18 nucleotide, 5' end-labeled DNA primer to a 30 nucleotide RNA template with a complementary 3' end (see FIG. 10), and purifying the duplex on a 12% non-denaturing acrylamide gel. The primer sequence matched the 3' terminal 18 nucleotides of tRNA^{Lys,3}, responsible for priming minus-strand DNA synthesis of the HIV-1 genome, and the template sequence paralleled the HIV-1 genomic primer binding site and downstream 12 nucleotides. A dilution series of inhibitory ssDNA ligand (to give a final concentration of 0, 1, 3, 9, 27, or 81 nM) was denatured in HRT Buffer at 70° C. for 5 minutes and allowed to renature slowly at 20° C. The primer:template substrate was added to a final concentration of 40 nM, along with dNTP's at 400 µM. The 10 µl reaction was initiated with the addition of either HIV-1, AMV, or MMLV-RT (to give a final concentration of 10 nM), allowed to proceed for 5 minutes at 37° C., and terminated with one volume of formamide. Extension products were separated on an 8% denaturing acrylamide gel and quantitated with an Ambis radioanalytic imager.
The ability of each of the 8 isolates to inhibit the RNA-dependent DNA polymerase activity of HIV-1 RT was assayed by measuring the decrease in extension product formation from a primer:template substrate as a function of inhibitor concentration (FIGS. 10A–10E). The substrate for the inhibition assay was a DNA:RNA heteroduplex consisting of an 18 nucleotide end-labeled DNA primer identical in sequence to the 3' end of tRNA^{Lys,3} annealed to a 30 nucleotide RNA template whose sequence matches the genomic primer binding site and the first twelve transcribed nucleotides. Extension reactions were performed as described in Example 1 in the presence of 0, 81, 27, 9, 3, and 1 nM inhibitor as indicated in FIG. 10.

[2] = biological target: T1, HIV-1 reverse transcriptase; assay: filter; HRT buffer, 6 mM MgCl2, 37 C; details: tags: overexpressed in E. coli, purified per Davies et al. 1991, label: 5'-32P
[3] = biological target: T1, HIV-1 reverse transcriptase; assay: filter; nearly as high as full-length RT1; details: tags: overexpressed in E. coli, purified per Davies et al. 1991
[4] = biological target: T1, HIV-1 reverse transcriptase; assay: filter; HRT buffer, 37 C; details: tags: overexpressed in E. coli, purified per Davies et al. 1991; pseudoknot
[5] = biological target: T1, HIV-1 reverse transcriptase; assay: competition; Kc for displacement of RT1; details: tags: overexpressed in E. coli, purified per Davies et al. 1991; pseudoknot
Procedure: To test this, we measured the ability of the ssDNA ligand RT1 (SEQ ID NO:71) to maintain its specific binding contacts with HIV-1 RT in the presence of high concentrations of RNA pseudoknot (see FIG. 8). […] The percent of RT1 bound in the presence of competitor relative the percent bound in the absence of competitor is plotted as a function of RNA pk concentration. […] As shown graphically in FIG. 14, when a stoichiometric equivalent of RNA pk was added, approximately one half of the complexed RT1 was displaced, and nearly all was displaced when a large excess of RNA was added. […] However, with this assay we are unable to distinguish between an interaction of both ligands at a common site or an interaction of each at different sites, with a conformational change upon binding the first that prevents subsequent binding of the second.

[6] = biological target: T1, HIV-1 reverse transcriptase; assay: inhibition; Ki' for RNA-dependent DNA polymerase activity; 37 C, 40 nM primer:template; details: tags: overexpressed in E. coli, purified per Davies et al. 1991; label: 5'-32P; long interrupted helix with AA/CG internal loop
Description: as §1, with “imager. […]” for “imager.”

B1: RT26 (ssDNA)
DNA: ATCCGCCTGATTAGCGATACTTACGTGAGCGTGCTGTCCCCTAAAGGTGATACGTCACTTGAGCAAAATCACCTGCAGGGG
Question: Which Ki ([1]; label: 5'-32P, intramolecular primer:template junction, AA/CG internal loop) does the source give for B1 here?
Answer: 2.7 nM

Question: And the Kd ([2]; intramolecular primer:template junction, AA/CG internal loop)?
Answer: ~1 nM

B2: RT4 (ssDNA)
DNA: ATCCGCCTGATTAGCGATACTTTAGCAAAGTTGAAGCCGGACTAACAAGCTCTACGACTTGAGCAAAATCACCTGCAGGGG
Question: For B2, which Ki ([1]; label: 5'-32P, internal loop AA opposite AG) is on record?
Answer: 4.1 nM

B3: RT6 (ssDNA)
DNA: ATCCGCCTGATTAGCGATACTCAGGCGTTAGGGAAGGGCGTCGAAAGCAGGGTGGGACTTGAGCAAAATCACCTGCAGGGG
Question: With B3 as the binder, how does the Ki ([1]; label: 5'-32P) read?
Answer: 30 nM

Question: What about the Kd [2] of the same binder?
Answer: 5 nM

B4: RT10 (ssDNA)
DNA: ATCCGCCTGATTAGCGATACTTATTTGCCCTTGCAGGCCGCAGGAGTGCTAGCAGTACTTGAGCAAAATCACCTGCAGGGG
Question: How did the Ki ([1]; label: 5'-32P, intramolecular primer:template junction (3' AGGGG paired with CCCCT)) turn out when B4 was run?
Answer: 62 nM

Question: With ATCCGCCTGAATAGCGATACTCAGAAGGATAAACTGTCCAGAACTTGGA (ssDNA) [RT1t49] as the binder, how does the Kd [3] read?
Answer: 4 nM

Question: How did the Kd [4] turn out when GGUCCGAAGUGCAACGGGAAAAUGCACU (ssRNA) [RNA pseudoknot (RNA pk)] was run?
Answer: 5 nM

Question: What about the Ki [5] of the same binder?
Answer: 3 nM

Question: And the Ki ([1]; pseudoknot)?
Answer: 4.7 nM

B5: RT36 (ssDNA)
DNA: ATCCGCCTGATTAGCGATACTAAGCTCTTAGTTGATGCGCGGTCAAAATTTAAGCTACTTGAGCAAAATCACCTGCAGGGG
Question: With B5 as the binder, how does the Ki ([1]; label: 5'-32P, internal loop AA opposite A) read?
Answer: 6.5 nM

B6: RT8 (ssDNA)
DNA: ATCCGCCTGATTAGCGATACTAGCCAGTCAAGTTAATGGGTGCCATGCAGAAGCAACTTGAGCAAAATCACCTGCAGGGG
Question: For B6, which Ki ([1]; label: 5'-32P, internal loop CAA opposite TAG) is on record?
Answer: 13 nM

B7: RT1 (ssDNA)
DNA: ATCCGCCTGATTAGCGATACTCAGAAGGATAAACTGTCCAGAACTTGGAATATATCACTTGAGCAAAATCACCTGCAGGGG
Question: What does the source list for B7?
Answer: Ki [6]: 0.3 nM; Kd ([2]; long interrupted helix with AA/CG internal loop): ~1 nM
